Reference: paper PMC10806771

What follows are substances tested against trastuzumab (human) (assay: fluorescence polarisation).

IC50 [µM]	Substance
> 3	Fc-III V10K (peptide)
> 3	Fc-III W4K (peptide)
> 3	Fc-III W11K (peptide)
